Assay results taken from paper PMC9169791 (Proceedings of the National Academy of Sciences of the …, 2022).

Molecular target: T1, GST-DDRM1 (Arabidopsis thaliana, UniProt Q9ZW89 1-453)
T1 sequence (looked up): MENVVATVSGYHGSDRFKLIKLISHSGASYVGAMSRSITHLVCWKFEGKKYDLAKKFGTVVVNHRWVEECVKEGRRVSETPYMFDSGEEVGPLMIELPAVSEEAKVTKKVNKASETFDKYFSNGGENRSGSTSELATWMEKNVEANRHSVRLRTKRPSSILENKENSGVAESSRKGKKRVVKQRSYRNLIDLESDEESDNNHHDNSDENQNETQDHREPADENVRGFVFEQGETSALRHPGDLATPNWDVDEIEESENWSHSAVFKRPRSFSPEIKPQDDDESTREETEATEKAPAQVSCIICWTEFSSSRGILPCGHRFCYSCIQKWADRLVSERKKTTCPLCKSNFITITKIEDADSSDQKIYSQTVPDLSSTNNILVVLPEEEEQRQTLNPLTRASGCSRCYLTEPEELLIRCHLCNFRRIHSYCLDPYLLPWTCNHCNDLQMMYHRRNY
Test: pull-down

binding result: binds
B1: MBP-SOG1 (natural protein, Arabidopsis thaliana, UniProt Q6NQK2 1-449, looked up)
chain: MAGRSWLIDSNRIATKIMSASASSDPRQVVWKSNPSRHCPKCQHVIDNSDVVDDWPGLPRGVKFDPSDPEIIWHLLAKSGLSGLSSHPFIDEFIPTVNQDDGICYTHPKNLPGVKSDGTVSHFFHKAIKAYSTGTRKRRKIHDDDFGDVRWHKTGRTKPVVLDGVQRGCKKIMVLYGGKAVKTNWVMHQYHLGIEEDEKEGDYVVSKIFYQQPQQLVVKRGDKAEQEVSEDIFAAVTPTADPVTPKLATPEPRNAVRICSDSHIASDYVTPSDYVSAHEVSLAETSEVMCMEDEVQSIQPNHERPSSGPELEHGLENGAKEMLDDKEEQEKDRDNENQGEEDPTWFDSGSQFILNSQQLVEALSLCDDLLGSQDREENTNSGSLKDKQPCIADYAHLGPEDFKRDLEECQKIVLDPSNIELDTPPEFRLSQLEFGSQDSFLAWGTGKTD
